Changes are numbered by the printed parent chain. Numbers in names are those of the source.
Assays:
Assay type in all cases: physicochemical
[1] = T1 and T2 relaxivity measurements at 9.4 T (400 MHz NMR); details: for Holo/Apo % r1 Change / Holo/Apo % r2 Change: 37 °C; for r1 (Holo) / r2 (Holo) / r1 (Apo) / r2 (Apo): PBS buffer pH 7.4, 37 °C; for r1 (Holo) / r2 (Holo): with Gln; for r1 (Apo) / r2 (Apo): without Gln
Experimental: The effectiveness of a contrast agent depends on its “relaxivity”, which is measured in units of mM^−1 s^−1, and quantifies how much a given concentration of the contrast agent improves water relaxation rates. T1 and T2 relaxivities are denoted r1 and r2, respectively, and are calculated according to eqn (1):1 [drawing 1] Here, Ti and Ti^0 are the relaxation times in the presence and absence of the contrast agent, respectively, and [C] is the concentration of the contrast agent. […] The relaxivity of a contrast agent depends not only on the properties of the molecule but also on the strength of the magnetic field used for the measurement. Whereas early MRI instruments were relatively weak (<1 T), the modern clinical standard has risen to 1–3 T, wth an increasing number of even more powerful instruments (>3 T) in recent years. Thus, we performed relaxivity experiments at both the most clinically relevant field strengths 1.4 T and at the more cutting-edge field strength of 9.4 T.
10% D 2O (assay buffer). S tock solutions of swArM in assay buffer was prepared at1.11, 0.83, 0.56, and 0.28 mM. Apo- and holo-swArM samples were prepared from the same stock by adding either 20 μL assay buffer or 20 μL 0. 1 M Gln in assay buffer, to 180 μL of protein solution, respectively. Final protein concentrations were verified using the molar extinction coefficient ε28 0 = 25.9 mM -1 cm -1.
B. NM R M easu r ements . Relaxivities of all variants were determined at 37 °C from spectra taken at 9.4 T (400 mHz) using a Varian Inova 400 -MHz NMR spectrometer equipped with a Nalorac, 5 mm, DR probe. Select variants were also investigated at 32°C at 1.4 T (60 mHz) using a Nanalysis NMReady60 Pro instrument. Measurements were typically performed on 4 diffe rent concentrations of contrast agent and on the same buffer with no contrast agent. Temperature- dependent relaxivity measurements were performed using a Varian Inova 500-MHz NMR spectrometer, equipped with a Vari an, 5-mm, TR PFG probe with inverse proton detection. Temperature- dependent relaxivity was determined using either two concen trations of contrast agent ( 0. 5 and 1. 0 mM ) or t hree (0. 3, 0. 6, and 0.9 mM) . The temperature was calibrated using the 1H NMR signal of ethylene glycol.20 T1 measurements were performed using the inversion recovery method21 and T2 measurements were performed using the Carr–Purcell–Meiboom –G ill (CPMG) p ulse […]
Six or more pulse delay times (τ) were chosen to ensure coverage of the Ti under observation, and the delay between pulse sequences was set to at least 5-times T1.
Optimized 90° and 180° pulse widths were determined on the day of the experiment, and typically spanned 16‒2 0 μs (90° pulse width) and 32‒4 0 μs (180° pulse width). The delay in the CPMG pulse sequence was set to at least 50 times the 180° pulse width to allow at least four echo loops .
C. A n al ysi s . To determine Ti, data were analyzed via MestReNova software. For each spectrum, an integration was performed over the water peak, and the values obtained (dependent variable) were plotted against τ (independent variable). […]
then fit to a monoexponential decay according to Eq. 1. From these analyses, we obtain Ti for each sample concentration and type.
The quantity described by Eq. 2, where Ti at zero added sample is T0, was then plotted against the swArM concentration and a linear regression model was applied. The slope of this line gives the contrast agent relaxivity ri.

[2] = T1 and T2 relaxivity measurements at 1.4 T (60 MHz NMR); details: for Holo/Apo % r1 Change / Holo/Apo % r2 Change: 32 °C
[3] = Stability of swArM samples prepared in PBS buffer for relaxivity studies; details: PBS buffer
Description: Next, we set out to investigate alternative ligands to coordinate Ln^3+ ions. As shown in Chart 1, we investigated two DOTA derivatives (DOTA-mal^N and DOTA-mal^C) as well as an acyclic version of DOTA, diethylene triamine pentaacetic acid (DTPA), and a six-coordinate version of the eight-coordinate DOTA ligand, nonane triacetic acid (NOTA). […] This ligand has previously been tested with Gd^3+ as an MRI contrast agent in PBS buffer, with no reported stability issues.[40] The fact that conjugation to our protein decreased the kinetic stability of Gd(NOTA) exemplifies the impact of the specific protein environment.

[4] = free contrast agent control, PBS pH 7.4, 37 °C
[5] = PBS buffer pH 7.4, 32 °C, with Gln
[6] = PBS buffer pH 7.4, 32 °C, without Gln
[7] = listed as [Dy(DOTA-mal^N)]72-GlnBP

O=C([O-])CN1CCN(CC(=O)[O-])CCN(CC(=O)[O-])CCN(CC(=O)[O-])CC1.[Gd+3] [Gd(DOTA), reference compound]
+Gln/−Gln % r1 Change ([1]; free contrast agent control): 0 ± 3%
+Gln/−Gln % r2 Change ([1]; free contrast agent control): 1 ± 6%
r1 (+Gln) [1, 4]: 2.80 ± 0.07 mM⁻¹ s⁻¹
r1 (−Gln) [1, 4]: 2.82 ± 0.04 mM⁻¹ s⁻¹
r2 (+Gln) [1, 4]: 3.6 ± 0.2 mM⁻¹ s⁻¹
r2 (−Gln) [1, 4]: 3.5 ± 0.1 mM⁻¹ s⁻¹

B1: [Gd(DOTA-mal^N)]72: swArM: Gd(DOTA-mal^N) metallocofactor covalently attached at Cys72 of T72C E. coli glutamine-binding protein (GlnBP) (conjugate, UniProt P0AEQ3 23-248, looked up, variant T72C)
Glutamine-binding periplasmic …: ADKKLVVATDTAFVPFEFKQGDKYVGFDVDLWAAIAKELKLDYELKPMDFSGIIPALQTKNVDLALAGITICDERKKAIDFSDGYYKSGLLVMVKANNNDVKSVKDLDGKVVAVKSGTGSVDYAKANIKTKDLRQFPNIDNAYMELGTNRADAVLHDTPNILYFIKTAGNGQFKAVGDSLEAQQYGIAFPKGSDELRDKVNGALKTLRENGTYNEIYKKWFGTEPK
modifications: Gd(DOTA-malN) at Cys72
Holo/Apo % r1 Change [2]: 4 ± 2%
Holo/Apo % r2 Change [2]: 11 ± 2%
r1 (Holo) [2, 5]: 20.4 ± 0.3 mM⁻¹ s⁻¹
r2 (Holo) [2, 5]: 41.5 ± 0.4 mM⁻¹ s⁻¹
r1 (Holo) ([2]; PBS buffer pH 7.4, 32 °C, with Gln, listed as [Gd(DOTA-malN)]72): 20.4 mM⁻¹ s⁻¹
r1 (Apo) [2, 6]: 19.5 ± 0.4 mM⁻¹ s⁻¹
r2 (Apo) [2, 6]: 37.2 ± 0.7 mM⁻¹ s⁻¹
r1 (Apo) ([2]; PBS buffer pH 7.4, 32 °C, without Gln, listed as [Gd(DOTA-malN)]72): 19.5 mM⁻¹ s⁻¹
Holo/Apo % r1 Change [1]: –1 ± 2%
Holo/Apo % r2 Change [1]: 20 ± 5%
r1 (Holo) [1]: 4.32 ± 0.07 mM⁻¹ s⁻¹
r2 (Holo) [1]: 43.2 ± 0.8 mM⁻¹ s⁻¹
r1 (Holo) ([1]; listed as [Gd(DOTA-malN)]72): 4.32 mM⁻¹ s⁻¹
r1 (Apo) [1]: 4.35 ± 0.07 mM⁻¹ s⁻¹
r2 (Apo) [1]: 36 ± 1 mM⁻¹ s⁻¹
r1 (Apo) ([1]; listed as [Gd(DOTA-malN)]72): 4.35 mM⁻¹ s⁻¹

B2: [Dy(DOTA-malN)]72-A126D: swArM: Dy(DOTA-mal^N) on T72C/A126D double variant of GlnBP (conjugate, UniProt P0AEQ3 23-248, looked up, variant T72C A126D)
Glutamine-binding periplasmic …: B1 Glutamine-binding periplasmic … with A126D
modifications: Dy(DOTA-malN) at Cys72
notes: swArM: Dy(DOTA-mal^N) on T72C/A126D double variant of GlnBP
Holo/Apo % r2 Change [1]: 23 ± 5%
r2 (Holo) [1]: 11.7 ± 0.09 mM⁻¹ s⁻¹
r2 (Apo) [1]: 9.5 ± 0.3 mM⁻¹ s⁻¹

B3: [Dy(DOTA-malN)]72-Q183Y: swArM: Dy(DOTA-mal^N) on T72C/Q183Y double variant of GlnBP (conjugate, UniProt P0AEQ3 23-248, looked up, variant T72C Q183Y)
Glutamine-binding periplasmic …: B1 Glutamine-binding periplasmic … with Q183Y
modifications: Dy(DOTA-malN) at Cys72
notes: swArM: Dy(DOTA-mal^N) on T72C/Q183Y double variant of GlnBP
Holo/Apo % r2 Change [1]: 29 ± 4%
r2 (Holo) [1]: 18.0 ± 0.4 mM⁻¹ s⁻¹
r2 (Apo) [1]: 14.0 ± 0.1 mM⁻¹ s⁻¹

B4: [Dy(DOTA-mal^N)]72: swArM: Dy(DOTA-mal^N) attached at Cys72 of T72C-GlnBP (conjugate, UniProt P0AEQ3 23-248, looked up, variant T72C)
Glutamine-binding periplasmic …: B1 Glutamine-binding periplasmic …
modifications: Dy(DOTA-malN) at Cys72
notes: swArM: Dy(DOTA-mal^N) attached at Cys72 of T72C-GlnBP
Holo/Apo % r1 Change [2]: 4 ± 5%
Holo/Apo % r2 Change [2]: 40 ± 20%
r1 (Holo) [2, 5]: 0.201 mM⁻¹ s⁻¹
r1 (Apo) [2, 6]: 0.176 mM⁻¹ s⁻¹
Holo/Apo % r1 Change [1]: –1 ± 5%
Holo/Apo % r2 Change [1]: 36 ± 3%
r1 (Holo) [1]: 0.37 ± 0.02 mM⁻¹ s⁻¹
r2 (Holo) [1, 7]: 9.3 ± 0.1 mM⁻¹ s⁻¹
r1 (Apo) [1]: 0.37 ± 0.01 mM⁻¹ s⁻¹
r2 (Apo) [1]: 6.83 ± 0.04 mM⁻¹ s⁻¹
r1 (Apo) ([1]; listed as [Dy(DOTA-malN)]72): 0.37 mM⁻¹ s⁻¹
r2 (Apo) [1, 7]: 6.86 ± 0.08 mM⁻¹ s⁻¹
r1 value ([1]; apo/holo not specified): below the practical detection limit

B5: [Dy(DOTA-mal^N)]72-A126Y: swArM: Dy(DOTA-mal^N) on T72C/A126Y double variant of GlnBP (conjugate, UniProt P0AEQ3 23-248, looked up, variant T72C A126Y)
Glutamine-binding periplasmic …: B1 Glutamine-binding periplasmic … with A126Y
modifications: Dy(DOTA-malN) at Cys72
notes: swArM: Dy(DOTA-mal^N) on T72C/A126Y double variant of GlnBP
Holo/Apo % r2 Change [1]: 58 ± 6%
r2 (Holo) [1]: 10.8 ± 0.2 mM⁻¹ s⁻¹
r2 (Apo) [1]: 6.8 ± 0.2 mM⁻¹ s⁻¹

B6: [Dy(DOTA-malC)]72-A126Y: swArM: Dy(DOTA-mal^C), linker on carbon of carboxylate arm, on T72C/A126Y GlnBP (conjugate, UniProt P0AEQ3 23-248, looked up, variant T72C A126Y)
Glutamine-binding periplasmic …: B1 Glutamine-binding periplasmic … with A126Y
modifications: Dy(DOTA-malC) at Cys72
notes: swArM: Dy(DOTA-mal^C), linker on carbon of carboxylate arm, on T72C/A126Y GlnBP
r2 (Holo) [1]: 9.6 ± 0.2 mM⁻¹ s⁻¹
r2 (Apo) [1]: 9.7 ± 0.1 mM⁻¹ s⁻¹

B7: [Gd(DOTA-malN)]72-Q183K: swArM: Gd(DOTA-mal^N) on T72C/Q183K double variant of GlnBP (conjugate, UniProt P0AEQ3 23-248, looked up, variant T72C Q183K)
Glutamine-binding periplasmic …: B1 Glutamine-binding periplasmic … with Q183K
modifications: Gd(DOTA-malN) at Cys72
notes: swArM: Gd(DOTA-mal^N) on T72C/Q183K double variant of GlnBP
r2 (Holo) [1]: 28.2 ± 0.8 mM⁻¹ s⁻¹
r2 (Apo) [1]: 30.9 ± 0.2 mM⁻¹ s⁻¹

B8: [Dy(DOTA-mal^N)]72-N127Y: swArM: Dy(DOTA-mal^N) on T72C/N127Y double variant of GlnBP (conjugate, UniProt P0AEQ3 23-248, looked up, variant T72C N127Y)
Glutamine-binding periplasmic …: B1 Glutamine-binding periplasmic … with N127Y
modifications: Dy(DOTA-malN) at Cys72
notes: swArM: Dy(DOTA-mal^N) on T72C/N127Y double variant of GlnBP
Holo/Apo % r2 Change [1]: 40 ± 7%
r2 (Holo) [1]: 9.1 ± 0.2 mM⁻¹ s⁻¹
r2 (Apo) [1]: 6.5 ± 0.3 mM⁻¹ s⁻¹

B9: [Gd(NOTA)mal^N)]72-GlnBP: swArM: Gd complex of maleimide-functionalized NOTA attached at Cys72 of T72C-GlnBP (conjugate, UniProt P0AEQ3 23-248, looked up, variant T72C)
Glutamine-binding periplasmic …: B1 Glutamine-binding periplasmic …
modifications: Gd(NOTA-mal) at Cys72
stability of the swArM in PBS buffer (metal loss, precipitate) [3]: precipitate formation

B10: [Dy(DOTA-malN)]72-G119K: swArM: Dy(DOTA-mal^N) on T72C/G119K double variant of GlnBP (conjugate, UniProt P0AEQ3 23-248, looked up, variant T72C G119K)
Glutamine-binding periplasmic …: B1 Glutamine-binding periplasmic … with G119K
modifications: Dy(DOTA-malN) at Cys72
notes: swArM: Dy(DOTA-mal^N) on T72C/G119K double variant of GlnBP
Holo/Apo % r2 Change [1]: 15 ± 4%
r2 (Holo) [1]: 8.5 ± 0.2 mM⁻¹ s⁻¹
r2 (Apo) [1]: 7.39 ± 0.07 mM⁻¹ s⁻¹

From publication PMC12699829, “Development of a glutamine-responsive MRI contrast agent” (Chemical Science, 2025)
